From patent US8546531B2, “Methods and reagents for preparing multifunctional probes” (The General Hospital Corporation, priority 2008, dated 2013)

Test system: integrin-expressing B16F0 melanoma
Conditions: mouse, in vivo, iv
Method: Approximately 1·10^6 B16F0 murine melanoma cells (from C57BL6 mice) in PBS (40 μL) were injected s.c. into the right hind paw of 6-8 weeks female C57BL6 mice (Charles River Laboratories). After 4 weeks, tumors reached a size suitable for nuclear imaging experiments.
SPECT imaging co-registered with high-resolution CT was performed on a X-SPECT™ system (Gamma Medica, Northridge, Calif., USA). The SPECT system has two gamma cameras, equipped with 1 mm diameter medium-energy pinhole collimators. The solid state CT is mounted on the same gantry as the gamma cameras enabling high quality image fusion. The SPECT images were reconstructed using OSEM (ordered subsets expectation maximization) and CT images were reconstructed using a modified Feldkamp cone-beam reconstruction algorithm (COBRA). The ^111In-MSAP-RGD probe (300 μCi in 150 μL) was injected (iv, tail vein) and after 2 hours mice were anesthetized (isoflurane). CT (256 projections, 50 kV, 0.5 mA) was performed followed by a SPECT acquisition with parameters of 64 projections, 30-120 seconds per projection and a radius of rotation of 3.5 cm giving a resolution of 1.8 mm. […] Mean SPECT pixel intensity and tumor volumes were determined by designing regions of interest (ROIs) on the hind paws of the micrometer resolution CT scans and extrapolating these ROIs to the fused SPECT data using Osirix software. […]

N=C(N)NCCC[C@@H]1NC(=O)[C@H](CCCCNC(=O)CCCN2C(=O)CC(SC[C@H](NC(=O)[C@H](CCCCNC(=O)CCCCCNc3ccc([N+](=O)[O-])c4nonc34)NC(=O)CN(CCN(CC(=O)O)CC(=O)O)CCN(CC(=O)O)CC(=O)O)C(N)=O)C2=O)NC(=O)[C@@H](Cc2ccccc2)NC(=O)[C@H](CC(=O)O)NC(=O)CNC1=O (stereo partly shown) (111In complex, metal not drawn) [MSAP-RGD probe]
distribution of the probe within the tumor: occurred in parts of the tumor with high CD31 (endothelial cell maker) levels and CD11b (monocytes/macrophages marker) levels
